Experimental data taken from IntAct's records for PubMed 21223507.

B1: Eukaryotic translation initiation factor 2-alpha kinase 1 (Mus musculus), Q9Z2R9 (parent)
chain: MLGGSSVDGERDTDDDAAGAVAAPPAIDFPAEVSDPKYDESDVPAELQVLKEPLQQPTFPFLVANQLLLVSLLEHLSHVHEPNPLHSKQVFKLLCQTFIKMGLLSSFTCSDEFSSLRLHHNRAITHLMRSAKERVRQDPCQDNSYMQKIRSREIAFEAQTSRYLNEFEELAILGKGGYGRVYKVRNKLDGQHYAIKKILIKSATKTDCMKVLREVKVLAGLQHPNIVGYHTAWIEHVHVVQPQDRVPIQLPSLEVLSEQEGDRDQGGVKDNESSSSIVFAELTPEKEKPFGESEVKNENNNLVSYTANLVVRNSSESESSIELQEDGLTDLSVRPVVRHQLPLGHSSELEGNFTSTDESSEGNLNLLGQTEVRYHLMLHIQMQLCELSLWDWITERNKRSREYVDEAACPYVMASVATKIFQELVEGVFYIHNMGIVHRDLKPRNIFLHGPDQQVKIGDFGLACADIIQNADWTNRNGKGTRTHTSRVGTCLYASPEQLEGSQYDAKSDMYSLGVILLELFQPFGTEMERATVLTGVRTGRIPESLSKRCPVQAKYIQLLTGRNVSQRPSALQLLQSELFQTTGNVNLTLQMKIIEQEKEIEELKKQLSLLSQDRGLKR

Variants of: B1
Details: with if2a_mouse Eif2s1, Q6ZWX6
Chain of if2a_mouse Eif2s1, Q6ZWX6 (Q6ZWX6 whole entry): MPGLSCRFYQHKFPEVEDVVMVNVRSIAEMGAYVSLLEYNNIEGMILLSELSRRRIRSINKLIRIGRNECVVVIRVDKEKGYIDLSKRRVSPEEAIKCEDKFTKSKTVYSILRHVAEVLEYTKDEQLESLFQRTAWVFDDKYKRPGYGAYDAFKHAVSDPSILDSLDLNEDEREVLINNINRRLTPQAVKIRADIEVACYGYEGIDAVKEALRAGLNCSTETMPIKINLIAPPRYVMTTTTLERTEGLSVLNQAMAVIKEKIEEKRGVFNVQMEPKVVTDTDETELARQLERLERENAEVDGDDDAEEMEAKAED

effect of a mutation on the interaction	Variant
decreasing interaction	T485A

Variants of: B1
Details: with if2a_mouse Eif2s1, Q6ZWX6
Remark: another data set of the same source

effect of a mutation on the interaction	Variant
disrupting interaction	T490A

Variants of: B1
Details: with if2a_mouse Eif2s1, Q6ZWX6
Remark: another data set of the same source

effect of a mutation on the interaction	Variant
decreasing interaction	H119A
decreasing interaction	H120A

Variants of: B1
Details: with if2a_mouse Eif2s1, Q6ZWX6
Remark: another data set of the same source

effect of a mutation on the interaction	Variant
disrupting interaction	S502A

Variants of: B1
Details: with if2a_mouse Eif2s1, Q6ZWX6
Remark: another data set of the same source

effect of a mutation on the interaction	Variant
disrupting interaction	K196R

Variants of: B1
Details: with if2a_mouse Eif2s1, Q6ZWX6
Remark: another data set of the same source

effect of a mutation on the interaction	Variant
decreasing interaction	Y193F
